± gives the uncertainty stated by the source.

The text below walks through data of the supplement of paper PMC12042874.

The data set can be described thus: amyloid nucleation score (Sup35N fusion, yeast selection) (log enrichment); library NNK2; higher = more nucleation; inactive = no reads after selection. A digest of the protocol:
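The nucleation score is the log enrichment of output over input reads, calculated with DiMSum and centred on the mode score of non-aggregating sequences. Sequences with under 100 input reads were excluded. Reads came from Illumina sequencing of plasmid inserts from psi-negative yeast expressing Sup35N fused to peptides of 20 random codons, induced 24 hours with 100 μM copper sulfate and grown 7 days at 30°C without adenine and uracil.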
Substance RNALDTDAAE gave an amyloid nucleation score of 0.323 ± 0.55. Next, GGMLPYVVITFETFMPRCMN: -1.7 ± 0.75; IIMPF: -0.682 ± 0.64; QSIRFVFLPYELGTYHGDEG: -0.241 ± 0.24.

Turning to MNPYLVGPFERVV, the amyloid nucleation score was 0.061 ± 0.33. Next, ANNRGVSLDPGVHCVGVLLK: 0.551 ± 0.51; LATTVYFGAMGHVS: -1.38 ± 1; VLHKNTKMANTWVHNPTEVE: -0.328 ± 0.27. FPQFNRIWSSNFFAHIEGLN registered an amyloid nucleation score of -1.85 ± 0.44. The substance TGVIAYVRKVGDLSSCVYSC returned an amyloid nucleation score of 3.6 ± 0.14. Next, RVGFNNRNVVD: 0.266 ± 0.56. In the case of VVGFSMFYKWDMNSMVSRMS it was 2.27 ± 0.084; in that of LLITR, -0.183 ± 1. In the case of SSFAARRR it was 0.276 ± 0.28; in that of LLEFWDHLVYSMIECNRKNV, “inactive”; in that of AYDFGVA, -0.263 ± 1.1. DGRIVYEPSKSARFWKVKCL showed an amyloid nucleation score of -0.335 ± 0.79. In the case of MSFKDNYQPK it was -0.707 ± 0.76. Next, FGMILPFGDIFTLASDFRVR: -0.833 ± 1.1; RVGRSSKLWGFREYTSRKFG: 0.28 ± 0.77. In the case of KIFSSF it was -1.01 ± 1.1; in that of SGCTGFCRRGPVRCWGSCLL, “inactive”.

Turning to ANKKIDSGNGLLDFQQNSQK, the amyloid nucleation score was -0.249 ± 1. In the case of VKRYGINGGFNYSSYCTAGI, the amyloid nucleation score entry was “inactive”. In the case of FVLMMDYEIIFLN it was 4.52 ± 0.071.

As for HNSNYHIYGWVMVRRRIGYI, the amyloid nucleation score entry is “inactive”.

In the case of RVGQSIYMPPLRNGRAGVKW, the amyloid nucleation score was found to be 1.21 ± 0.27.

Substance SFNVYRASGVKVRQWAFHGG showed an amyloid nucleation score of 0.076 ± 0.61. In the case of GYAADLWWVLLFYERLVSGD it was 0.026 ± 0.49; in that of SSKETGRRTVDRFQYMTRYR, 1.94 ± 0.32; in that of IEFWDYKYVLVSSFVFKHDV, -0.069 ± 0.65. In the case of CLQSPLYFDWGSGIQISNWL it was “inactive”. For the substance LTLHAVWI, the amyloid nucleation score is -0.022 ± 0.27. SWATLRVCNIFCMITCSYFM returned an amyloid nucleation score of 1.51 ± 0.15. Next, WWSKEREYWSLPVGWFMEAV: 0.085 ± 0.45; SHGELEVAMPDTGNI: -0.378 ± 0.32; VCQRPEMVLNSIETLQPRWS: 0.211 ± 0.21.

In the case of GSMITCFVSDTLYKTVMVKL, the amyloid nucleation score turned out to be 0.373 ± 0.54. The substance CIFFLVV registered an amyloid nucleation score of 4.79 ± 0.071. Next, NIEVWMFYSLMNMNEA: -0.509 ± 1.1. In the case of FRGIPCLCHVIM it was 5.81 ± 0.081; in that of YLVPFWVVDCFDGLD, 0.072 ± 1.1; in that of NYRLQIINGRRSTSVRVQGA, 0.606 ± 0.36.

Take GVCVKRFFKLVTAGECNSKG: the amyloid nucleation score is -0.13 ± 0.4. QIDLL showed an amyloid nucleation score of -1.36 ± 1.1. In the case of FVFLVYYFSEFIH it was “inactive”; in that of PDLMLPDRLDIERCLQVWD, 0.049 ± 0.18. In the case of RSDSVYSIGCSNENRQSGRA it was 1.21 ± 0.2; in that of FNTRMSIKSGNMTWSNYYWF, 5.771 ± 0.053. Next, AFQITSERLGWKKVNHAVRW: 0.432 ± 0.8; TFATYTISNCLYVPRPVT: 0.879 ± 0.19. Consider WSLLEF, for which the amyloid nucleation score result is “inactive”. In the case of ISHISDL it was 4.61 ± 0.072; in that of WYALNYTIPEPYWT, 0.881 ± 0.48. Regarding GWLYVYDSGMFGGWNIGVDG, the amyloid nucleation score was -0.131 ± 0.36. Next, QVYLS: -1.17 ± 0.62; GGGAAPNPTDYKSILLLC: 0.17 ± 0.34. Next, GSLAGAKL: -0.588 ± 0.76.

As to VRCGGVSFGSMWVLDSILVR, the amyloid nucleation score was 0.652 ± 0.15. With LCVYLYWF, the amyloid nucleation score is -1.01 ± 0.39. Next, VFSYRLLSNPLSVPW: 4.83 ± 0.089. For the substance CGNSHMYMNAGDFT, the amyloid nucleation score is -0.293 ± 0.79.

As to VSLNCKRRALMTWYVKGLFG, the amyloid nucleation score was -0.073 ± 0.22. In the case of ATVFF it was 0.768 ± 0.28. Next, AKLLSAVVWDCHWV: 5.17 ± 0.055. With LWLLMYGSW, the amyloid nucleation score stood at 2.4 ± 0.1.

As for VLKKA, the amyloid nucleation score stood at 0.185 ± 0.8. Next, FMSIFDWSCVWFYLCKGTWD: -1.75 ± 0.54; GISCYLRVHTSANDESCSER: 0.426 ± 0.8.

The substance LCHYGCMVRESNLEYCPSME registered an amyloid nucleation score of 0.381 ± 0.48. Next, AVCITFLSSCAIFFDSPVRV: 6.409 ± 0.047; YDPVAVF: -0.945 ± 0.43; WYYFYLFDACLSVSCWAIWY: -0.283 ± 1. Next, PSGFVVLGSLCGMIFVRVTK: -0.974 ± 0.49.

TLMCFYYFEQ displayed an amyloid nucleation score of 9.395 ± 0.053. In the case of MPQWKL, the amyloid nucleation score is -0.205 ± 0.74. In the case of MNMSEMSAYHFLFSGGSKLR, the amyloid nucleation score was -0.21 ± 0.44. NYTGQTFVMTGLISFNPQIG gave an amyloid nucleation score of 5.79 ± 0.074.

As for ALSFYNY, the amyloid nucleation score was -0.282 ± 0.76. Next, LPGQGIWWHICIEG: 1.24 ± 0.14; SFDCKVMVFCAMRYNLRIMS: -1 ± 0.5; RLDNIIVAERCTSLRESRFG: -0.047 ± 1.1. Next, MAVLEMRDRWCDLLLTTSRV: 0.155 ± 0.21; LDKKVSVSAVRLTRRDASEE: 2.25 ± 0.098; LNCYFGHRDPIFSRMNICDY: -0.469 ± 1.1. Next, RTLLSSCKIATSLWHMCYPQ: -0.381 ± 1.1; SAWVTNIFDNKLCVAVTEFR: 4.04 ± 0.06.

Turning to ATCSPSVSRVLGLCSWECFR, the amyloid nucleation score is -0.382 ± 0.76. Next, FFDRMLYLRVARCTTFWPVD: 0.492 ± 0.64; SRTDRLDGCAWLLYDCTMGD: -0.211 ± 0.53. On to RYWTSIGCGR, for which the amyloid nucleation score was 0.589 ± 0.32. In the case of PGVPP it was -1.06 ± 1.1. In turn, YHCVEYLGARL returned an amyloid nucleation score of 0.083 ± 0.63. NTLVMRWCRGCQWKEQLASN came in with an amyloid nucleation score of 1.1 ± 0.41. For VMYKAFFRYFGR, the amyloid nucleation score was determined as 1.71 ± 0.24. Next, SAGVEAREMRTSYLGSSEVG: 1.28 ± 0.32; CSPVLKSSFNALARKRMLAR: 1.29 ± 0.35; AHLVCRLYETMQLYLYLQWY: -1.01 ± 0.3. In the case of RTVLGGWMANWASHNILVQC it was 0.316 ± 0.39; in that of WQYFFGMYNPSGGRRPGISG, -0.373 ± 1; in that of DDCCSVNAMHSANCMMVVR, 0.09 ± 1. In the case of LLSVASRLLVPFRERGNGS it was -0.256 ± 1.1. The substance VICGLTPDRDAHMYLTIFWL gave an amyloid nucleation score of 0.578 ± 0.81. Next, TFVLSNC: -0.356 ± 0.65; FAGWIYGCTDRMVCLCSGGF: “inactive”. In the case of RMYLVGMLMHSLLEEMSKTA, the amyloid nucleation score was 4.76 ± 0.083. In the case of LGFDASLKLFLVQQGLSN it was -0.341 ± 0.33; in that of FYKDKETCLECWMIYENCRK, -0.29 ± 0.32.

Consider WALYVGGANRFFMCQWVNLG, for which the amyloid nucleation score was found to be 2.26 ± 0.13. In the case of YLTFLNASTSRYKLSLVPRR it was 4.11 ± 0.082.

For LWLVYSESWSMYAMS, the amyloid nucleation score worked out at 1.19 ± 0.12.

Turning to ECSHQIL, the amyloid nucleation score is -0.179 ± 0.63. Next, VYTRKCGLAFRVSSGT: 0.574 ± 0.5. The substance SFCKCLVVALVDVWNRCLPW showed an amyloid nucleation score of 4.68 ± 0.051. In the case of DCECGLNSWKKVT it was “inactive”.

For YLDAHILHE, the amyloid nucleation score was 4.54 ± 0.087. In the case of SLSCSESGVKNRKVVELGWM it was 0.432 ± 0.32; in that of HSNLVT, 0.234 ± 0.41; in that of FFFVFVGDVR, 2.08 ± 0.15. Next, DLAELISVKYLVTVSLWAGS: 0.621 ± 0.57.

LSVSDEVRQV registered an amyloid nucleation score of -0.466 ± 0.79. Next, VYFSSSIADKFYNLISVRFI: 0.833 ± 0.8.

With LTTSFANAWHFNFLGRPLH, the amyloid nucleation score amounted to 2.18 ± 0.18. In turn, TAHGAQWVPDWWEPVTSAYW gave an amyloid nucleation score of 1.21 ± 0.21.

Take MNLWVMAFR: the amyloid nucleation score turned out to be 6.502 ± 0.065. Next, FVSSII: -1.29 ± 0.39; SHNFRISYKSCVLNSCMKRL: “inactive”; CQWSVGRLRSLRAESVVQFD: 0.104 ± 0.35.

The substance IGINLCCGDYFIHVLSASCS yielded an amyloid nucleation score of 5.2 ± 0.058. YVWIQTLYALWYFSLRFAGL yielded an amyloid nucleation score of -0.413 ± 0.49. ILGQAGMILFNKLAPRGALR: the amyloid nucleation score entry was “inactive”. In the case of SKLEENIPKLVTRYQCGTGR it was 0.143 ± 0.37; in that of GRDPGNDEIDKLALSWRLMG, 0.657 ± 0.32. Next, WRYITCHS: 1.59 ± 0.55; SSQSRSISYGLGNCWSWWL: 2.71 ± 0.081. Next, RGALALLVRDAMFFCSLSGF: 4.41 ± 0.1; VFELFAMCSVSKCCGVSSVT: 1.46 ± 0.4; MMVGFLCK: 3.91 ± 0.07. VDRNVTSRSQVTSSFSWDIV: the amyloid nucleation score entry was “inactive”. As for LFVCMTLGYSLGKSHFDNGS, the amyloid nucleation score turned out to be 4.1 ± 0.044. In the case of MLVWTNMFSTLYDISWKAPL it was -1.02 ± 0.62.
